Test results published in PMC6009666, “DNA-mediated dimerization on a compact sequence signature controls enhancer engagement and regulation by FOXA1”.

T1: FOXA1 DBD (Homo sapiens, UniProt P55317 158-272)
T1 sequence: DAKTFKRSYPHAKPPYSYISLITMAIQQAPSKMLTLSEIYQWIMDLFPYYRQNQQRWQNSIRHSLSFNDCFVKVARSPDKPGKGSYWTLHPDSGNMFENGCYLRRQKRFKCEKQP

B1: FOXA1 monomer element (dsDNA)
DNA 1: CCGCCGCCGTGTTTACTTTGCCGCCGCC
DNA 2: GGCGGCGGCAAAGTAAACACGGCGGCGG

Assays:
[1] = molecular target: T1, FOXA1 DBD; assay: EMSA; settings: monomer binding not affected; EMSA: 20 mM Tris-HCl pH 8.0, 100 mM KCl, 50 uM ZnCl2, 0.1 mg/ml BSA, 10% glycerol, 0.1% Igepal CA630, 2 mM beta-mercaptoethanol, 1 h at 4 C; 1-100 nM dsDNA; 12%
[2] = molecular target: T1, FOXA1 DBD; assay: EMSA; 1 nM DNA; monomer; n=3; EMSA: 20 mM Tris-HCl pH 8.0, 100 mM KCl, 50 uM ZnCl2, 0.1 mg/ml BSA, 10% glycerol, 0.1% Igepal CA630, 2 mM beta-mercaptoethanol, 1 h at 4 C; 1-100 nM dsDNA; 12% native PAGE (6% for full length); settings: protein: recombinant; tags: His-tag implied (pNic28-Bsa4, Ni-NTA); label: 5' Cy5 forward strand

Molecule | binding signal (fold reduction of omega vs major allele) [1] | Kd [2] [nM]
rs2941742 minor allele | 20 | 
B1 |  | 2.4 ± 1.06
